From the supplement of paper PMC12042874
± gives the uncertainty stated by the source.

Experiment: amyloid nucleation score (Sup35N fusion, yeast selection) (log enrichment); library NNK3; higher = more nucleation; inactive = no reads after selection
Procedure, shortened: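 Output and input plasmid inserts were sequenced by Illumina after psi-negative yeast carrying Sup35N fused to peptides of 20 random codons had been induced 24 hours with 100 μM copper sulfate and grown 7 days at 30°C on medium lacking adenine and uracil. The nucleation score is the DiMSum log enrichment of output over input reads, centred on the mode score of non-aggregating sequences. Sequences with under 100 input reads were excluded.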

| Substance | amyloid nucleation score |
| --- | --- |
| LQFGVRINSLFYRMVSAVVG | inactive |
| LQNLNGLIVKSCL | inactive |
| LQRRYFGSRSLGTFARMFQH | inactive |
| LQTMTDSFKRTQCLCSYKCT | inactive |
| LRCGSSSDELCMREWFRVDL | inactive |
| LREVRTAVSLGQMGRGLQA | inactive |
| LRFRTDFSSASNK | 1.18 ± 0.081 |
| LRFVSKLWWFISMSSRSHLH | inactive |
| LRGFKEVTTRLKVRLQLGM | -0.731 ± 1.3 |
| LRGGKFNQYWIGRHGLSSVS | -0.562 ± 1.1 |
| LRGTD | inactive |
| LRKPYLEY | inactive |
| LRMSTSGIPYYMSGMSYYNI | inactive |
| LRNQITQIDDT | inactive |
| LRPKYTFYCRLD | 0.137 ± 0.28 |
| LRTGCSYNSREGHNTLGRSS | inactive |
| LRVTKQVLSSMMFTITFGGD | inactive |
| LRWRHGCIR | inactive |
| LRYASTSSFLVFQRDTLANE | inactive |
| LSAFVQDVLNVIQMLTEREF | inactive |
| LSECLRHGSDDTRFEVVGQD | 1.34 ± 0.097 |
| LSFIISCNYTINNNMWV | 2.91 ± 0.077 |
| LSFSLWNLEYIEISRRNLTL | 1.2 ± 0.097 |

| Substance | amyloid nucleation score |
| --- | --- |
| LSFVP | inactive |
| LSFYMVKGLKNKI | inactive |
| LSGELCSW | inactive |
| LSGENQLG | inactive |
| LSGMMFAGPFLTCSLDCWML | inactive |
| LSHSRSNL | inactive |
| LSILTFGSCTNKSH | inactive |
| LSIVLGEDLMRCTRSDSVWK | inactive |
| LSKLTSSQAGKG | inactive |
| LSLAS | inactive |
| LSLKRHLYLKVDASLTCVRT | inactive |
| LSLLSFNGIGHFLIVRKRYK | inactive |
| LSLSSFCF | 1.3 ± 0.17 |
| LSNDF | inactive |
| LSNHSSLASRSYFTNCN | inactive |
| LSNMMVVPSTSERFFFRAMG | inactive |
| LSPCGL | inactive |
| LSPSVFVNSNRLMTESSRGF | inactive |
| LSSDGFYFNTEYL | inactive |
| LSSYMDYGMSKVYVLWRSTW | -0.117 ± 0.28 |
| LSVLTL | inactive |
| LSVTRNACTEPFRGFLIGLY | inactive |
| LSYHTCSVMYALRMSALDCR | inactive |

| Substance | amyloid nucleation score |
| --- | --- |
| LTFGTCFGPYYGVYPNLFIM | inactive |
| LTGFIGICQLVSYFNEVALQ | inactive |
| LTGVLLMMVLYSRPHLTKAR | inactive |
| LTHGAVTVFYRFIMLSFILR | inactive |
| LTLSMKFTWYFYVSIYSGQG | inactive |
| LTMPWTAYCPFKCFLLRADS | inactive |
| LTNLCES | inactive |
| LTRVTMGYIAEIQWNFMSKN | 1.56 ± 0.066 |
| LTSLVLVLLLCSTRNGNGTC | 1.55 ± 0.085 |
| LTWLYDDDVSKFRTLLKFRS | inactive |
| LTWYREDLYVRSWSCYWDQR | inactive |
| LVAKRFISYHLIV | inactive |
| LVAWCDIPNCCANVYCNSVD | 1.85 ± 0.077 |
| LVCFPGTSFAGVCDW | inactive |
| LVDCFKLCRELNGLILNVAA | 1.07 ± 0.12 |
| LVEISTVERRALIFYRCIDL | -0.481 ± 1.4 |
| LVFLN | inactive |
| LVFSRCWFSMTVEYISYSVD | inactive |
| LVLDCMIMGMIIDSWYWPLN | inactive |
| LVLQLGFKKSPLRVYRSSGN | inactive |
| LVLSWWYMMFFRFDGV | inactive |
| LVRCRVVWDLL | inactive |
| LVSMWMQASILLYCNGSNHW | 1.61 ± 0.11 |

| Substance | amyloid nucleation score |
| --- | --- |
| LVVATRRLMYGHRKVYAWVD | inactive |
| LVVLLFVFI | inactive |
| LVVSVCKK | inactive |
| LVVWRIRWRDKGSL | inactive |
| LVYKLDVNCYDRNLLDSVEK | inactive |
| LVYTA | inactive |
| LVYTVNLWNALIFHLD | 0.527 ± 0.22 |
| LWAWIIYGMWKGSFLCHVFS | inactive |
| LWEDFLMVKSVVMN | inactive |
| LWGYGL | inactive |
| LWHSYFSFYLCVTFENRVIN | 2.79 ± 0.052 |
| LWLCSYNATGSFVAKD | -0.246 ± 0.5 |
| LWLGWNRKWQFSWPAAGRFL | inactive |
| LWNFYSDCNGVPQDESLVEG | inactive |
| LWTELYVYPLNMTVMVAIF | inactive |
| LYCTWNSYNSVYAI | 0.66 ± 0.2 |
| LYDISGPM | inactive |
| LYDSSTALATVSDHFVEWLS | inactive |
| LYDVGYKGQMVDGGTVCCER | -0.257 ± 0.8 |
| LYESNVRCNRVVTSLFVSSQ | inactive |
| LYGLRHYILSEHFGGFVLVG | inactive |
| LYHFANIFSFC | inactive |
| LYILGQIFR | inactive |

| Substance | amyloid nucleation score |
| --- | --- |
| LYIPMQLQCCAIMEGYAILF | 1.6 ± 0.078 |
| LYLKYLELEILRPYGAFICH | inactive |
| LYNGELNLMVRSNAEFMGSG | inactive |
| LYPFYFYA | inactive |
| LYREFVWMEVCVCRWG | inactive |
| LYRKWRE | inactive |
| LYSGVIAHCIVIPIELFSVS | inactive |
| LYSLVV | inactive |
| LYTNGIFYWQMGYLKVWQGI | inactive |
| LYVGEKLVHFLEARMD | inactive |
| LYVVVASMVGLDASRP | 0.266 ± 0.38 |
| LYWFCCLVIYVGPLVHPVEL | inactive |
| LYWKEIPGMDYKMAV | inactive |
| MACRSNGLVGPEHTYVPT | inactive |
| MAVID | inactive |
| MCDCL | inactive |
| MCEGAIQQRILLSMKFCCKW | 0.037 ± 0.87 |
| MCFTLIKLLIQWKREDQIDE | 1.07 ± 0.096 |
| MCRTMLSPLMR | inactive |
| MCSIIRCRFNMFCLMYVNSV | 0.584 ± 0.13 |
| MCVFNNGVGLPDVGVNLAYN | inactive |
| MCYLSSSDAGDVIPAWC | inactive |
| MDFCRRQIMLVVAFSCRLWL | inactive |

| Substance | amyloid nucleation score |
| --- | --- |
| MEINGALRYMH | inactive |
| MEYRHCSFNRSRTRTLYRMN | inactive |
| MEYSRVVAL | -0.421 ± 0.66 |
| MFEYLWEENMSLIYSKVDCG | inactive |
| MFFAGKTPGHVHVWNSANTR | inactive |
| MFFWMCE | inactive |
| MFGRYSLLDILPLNMIRGNI | inactive |
| MFINECVSVYDQF | inactive |
| MFMRIRSLIE | inactive |
| MFMVAIGAYEGCSGRRHREV | -0.238 ± 0.64 |
| MFVDSSISGIEIR | inactive |
| MFVSDKEYRCVTSSVTRVCT | inactive |
| MFVSLMKQFM | 0.931 ± 0.1 |
| MGISLMFESERVSVYEHGNL | inactive |
| MGKTMILKLLY | inactive |
| MGMARWYAKWLGWVLSMYRW | inactive |
| MGRLKCTVKPVSYEMWKVYA | inactive |
| MHFLVQSCFTEPRWAACRNV | inactive |
| MHIFVLNLDLSRA | 2.61 ± 0.069 |
| MHPCSL | inactive |
| MHSGFNRFSTYCRKVGGSYR | inactive |
| MICLLSSSCKRRCLMG | inactive |
| MIDDYRECSYIYF | inactive |

| Substance | amyloid nucleation score |
| --- | --- |
| MIFSTYNNLLWLKSLQSTGG | inactive |
| MILLHVVCSVFPVRGFVVLA | inactive |
| MILSESKYGFTFRLRVARQV | inactive |
| MILSNISGSRLIGSSNHSAF | inactive |
| MIQIIMLEGGLSCLRHLVIT | -0.362 ± 0.8 |
| MIRLSDTRRWIVYFHQCLCG | -0.748 ± 1 |
| MIRWTWNRKHTII | inactive |
| MISLMTYSYSRYMYIVSPVP | inactive |
| MISYELVNALEIISNLIFMW | inactive |
| MIVHWMVHSRLVHKAVVGDG | inactive |
| MIVSSYFYLVRIQYEFHAGW | 0.172 ± 0.43 |
| MKCLEGMHFIIFLVLALCIY | inactive |
| MKLSMHVCAGAKLSGEGFRF | inactive |
| MKLSVLNVWNSRWGLQTA | inactive |
| MKVIRTYRGYGCQDWIELLF | inactive |
| MLFRLRSAYHTASDVDANDD | inactive |
| MLISERIFQYTCGNYS | 2.09 ± 0.085 |
| MLITSMLCIHV | inactive |
| MLLFACQRLQLVALLGARML | inactive |
| MLMAPSYEYT | -0.209 ± 0.78 |
| MLRDFFQ | inactive |
| MLRLKYLIELTRDFFGWFLF | inactive |
| MMPNELFDPVRKDRSFVRWV | inactive |
